According to patent US20220003782A1 (METAFORA BIOSYSTEMS, published 2022):

Assays:
[1] = biological target: CAT1/SLC7A1 (UniProt P30825); test: flow cytometry, HEK293T cells with control siRNA siLUC (endogenous receptor), saturating ligand, Alexa488 anti-mouse IgG1
[2] = biological target: CAT1/SLC7A1 (UniProt P30825); test: flow cytometry, HEK293T cells with siSMVT A (endogenous receptor), saturating ligand, Alexa488 anti-mouse IgG1
[3] = biological target: XPR1/SLC53A1; test: flow cytometry, HEK293T cells with control siRNA siLUC (endogenous receptor), saturating ligand, Alexa488 anti-mouse IgG1
[4] = biological target: XPR1/SLC53A1; test: flow cytometry, HEK293T cells with siSMVT A (endogenous receptor), saturating ligand, Alexa488 anti-mouse IgG1
[5] = biological target: GLUT1/SLC2A1 (glucose transporter type 1) (UniProt P11166); test: flow cytometry, HEK293T cells with control siRNA siLUC (endogenous receptor), saturating ligand, Alexa488 anti-mouse IgG1
[6] = biological target: GLUT1/SLC2A1 (glucose transporter type 1) (UniProt P11166); test: flow cytometry, HEK293T cells with siSMVT A (endogenous receptor), saturating ligand, Alexa488 anti-mouse IgG1
[7] = biological target: T1, sodium-dependent multivitamin transporter / solute carrier family 5 member 6 (SMVT/SLC5A6) (human, UniProt Q9Y289 1-635); test: flow cytometry on HEK293T cells, siSMVT A against siLUC control
T1 construct: also called SLC5A6/SMVT
T1 sequence: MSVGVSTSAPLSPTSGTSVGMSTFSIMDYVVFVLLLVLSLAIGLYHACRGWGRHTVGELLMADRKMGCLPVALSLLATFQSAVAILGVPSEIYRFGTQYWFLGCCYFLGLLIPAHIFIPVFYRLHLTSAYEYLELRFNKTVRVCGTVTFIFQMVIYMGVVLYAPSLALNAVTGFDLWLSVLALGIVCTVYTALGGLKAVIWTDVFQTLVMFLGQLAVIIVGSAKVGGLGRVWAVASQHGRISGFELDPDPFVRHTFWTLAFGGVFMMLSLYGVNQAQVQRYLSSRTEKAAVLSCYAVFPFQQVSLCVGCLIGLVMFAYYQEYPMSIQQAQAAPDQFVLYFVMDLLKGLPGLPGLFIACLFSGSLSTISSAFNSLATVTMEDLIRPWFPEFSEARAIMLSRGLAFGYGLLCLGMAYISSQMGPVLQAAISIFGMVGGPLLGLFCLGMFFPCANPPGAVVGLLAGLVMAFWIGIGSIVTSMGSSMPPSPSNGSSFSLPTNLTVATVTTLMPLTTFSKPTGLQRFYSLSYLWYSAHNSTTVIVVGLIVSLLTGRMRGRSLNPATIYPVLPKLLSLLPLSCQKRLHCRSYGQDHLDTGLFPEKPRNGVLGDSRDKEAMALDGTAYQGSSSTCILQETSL

Chain of GLUT1/SLC2A1 (glucose transporter type 1) (P11166 whole entry): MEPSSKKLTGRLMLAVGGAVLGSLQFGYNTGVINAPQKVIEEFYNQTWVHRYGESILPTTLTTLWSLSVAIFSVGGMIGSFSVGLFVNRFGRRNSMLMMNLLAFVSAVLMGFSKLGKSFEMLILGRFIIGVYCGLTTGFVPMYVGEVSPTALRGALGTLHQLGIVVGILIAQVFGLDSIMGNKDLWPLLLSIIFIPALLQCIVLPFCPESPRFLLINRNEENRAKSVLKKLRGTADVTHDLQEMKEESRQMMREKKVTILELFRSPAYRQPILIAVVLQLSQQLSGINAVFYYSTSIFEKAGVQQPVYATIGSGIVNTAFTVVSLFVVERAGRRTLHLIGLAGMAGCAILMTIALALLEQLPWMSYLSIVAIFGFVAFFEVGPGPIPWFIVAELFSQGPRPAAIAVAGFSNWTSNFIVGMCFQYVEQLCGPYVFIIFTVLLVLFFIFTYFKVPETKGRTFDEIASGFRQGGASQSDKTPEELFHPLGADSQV
Chain of XPR1/SLC53A1 (Q9UH99 whole entry): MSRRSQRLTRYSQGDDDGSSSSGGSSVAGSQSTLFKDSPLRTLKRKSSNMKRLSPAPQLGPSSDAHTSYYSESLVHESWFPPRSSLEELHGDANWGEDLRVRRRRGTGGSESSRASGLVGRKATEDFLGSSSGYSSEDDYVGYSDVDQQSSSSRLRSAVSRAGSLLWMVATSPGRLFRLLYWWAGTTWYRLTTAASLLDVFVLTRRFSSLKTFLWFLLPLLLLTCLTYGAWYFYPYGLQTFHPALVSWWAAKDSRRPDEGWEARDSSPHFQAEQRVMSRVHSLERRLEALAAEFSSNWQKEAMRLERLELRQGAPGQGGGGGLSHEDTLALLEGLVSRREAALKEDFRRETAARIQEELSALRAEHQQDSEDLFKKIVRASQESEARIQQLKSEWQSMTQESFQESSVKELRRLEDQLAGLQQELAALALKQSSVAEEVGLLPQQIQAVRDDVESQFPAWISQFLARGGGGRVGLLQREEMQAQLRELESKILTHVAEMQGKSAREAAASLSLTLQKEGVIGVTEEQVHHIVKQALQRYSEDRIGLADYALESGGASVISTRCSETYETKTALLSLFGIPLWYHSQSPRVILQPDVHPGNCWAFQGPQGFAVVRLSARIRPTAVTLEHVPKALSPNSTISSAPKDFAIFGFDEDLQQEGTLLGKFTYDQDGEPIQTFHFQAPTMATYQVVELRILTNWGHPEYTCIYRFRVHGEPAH
Chain of CAT1/SLC7A1 (P30825 whole entry): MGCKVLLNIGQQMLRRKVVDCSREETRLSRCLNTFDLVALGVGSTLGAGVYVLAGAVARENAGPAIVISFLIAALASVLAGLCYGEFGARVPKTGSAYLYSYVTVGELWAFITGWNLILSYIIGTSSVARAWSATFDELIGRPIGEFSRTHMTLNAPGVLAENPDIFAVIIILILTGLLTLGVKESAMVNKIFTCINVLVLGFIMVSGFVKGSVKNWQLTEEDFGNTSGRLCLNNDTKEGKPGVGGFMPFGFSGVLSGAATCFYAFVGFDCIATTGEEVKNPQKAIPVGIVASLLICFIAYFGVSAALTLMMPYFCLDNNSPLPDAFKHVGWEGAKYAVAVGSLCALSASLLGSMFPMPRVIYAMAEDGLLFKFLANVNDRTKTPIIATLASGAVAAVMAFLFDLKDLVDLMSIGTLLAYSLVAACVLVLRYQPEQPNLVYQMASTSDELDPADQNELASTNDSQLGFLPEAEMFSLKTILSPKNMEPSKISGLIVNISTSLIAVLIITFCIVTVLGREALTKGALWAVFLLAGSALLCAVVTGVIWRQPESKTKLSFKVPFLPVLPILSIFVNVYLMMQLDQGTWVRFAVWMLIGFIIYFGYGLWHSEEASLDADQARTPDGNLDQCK

**Q.** What does the source list for “RBD derived from the bovine leukemia virus (BLV), fusion protein with mFC (Fc fusion)”?
**A.** relative specific binding (delta of the geometric mean of the fluorescence intensity) [1]: 110; relative specific binding (delta of the geometric mean of the fluorescence intensity) [2]: 110

**Q.** What does the source list for “RBD from a xenotropic murine retrovirus (XRBD), fusion protein with mFC (Fc fusion)”?
**A.** relative specific binding (delta of the geometric mean of the fluorescence intensity) [3]: 12.6; relative specific binding (delta of the geometric mean of the fluorescence intensity) [4]: 14.6

**Q.** What does the source list for “human T-cell leukemia virus type 2 (HTLV2)-RBD, fusion protein with mFC (Fc fusion)”?
**A.** relative specific binding (delta of the geometric mean of the fluorescence intensity) [5]: 18.3; relative specific binding (delta of the geometric mean of the fluorescence intensity) [6]: 21.3

B1: PERV-B RBD ligand fused to a mouse Fc fragment (SEQ ID NO: 13) (Fc fusion)
chain: KRLIDSSNPHRPLSLTWLIIDPDTGVTVNSTRGVAPRGTWWPELHFCLRLINPAVKSTPPNLVRSYGFYCCPGTEKEKYCGGSEESFCRRWSCVTSNDGDWKWPISLQDRVKFSFVNSGPGKYKVMKLYKDKSCSPSDLDYLKISFTEKGKQENIQKWINGMSWGIVFYKYGGGAGSTLTIRLRIEAGTEPPVAVGSVDVPRDCGCKPCICTVPEVSSVFIFPPKPKDVLTITLTPKVTCVVVDISKDDPEVQFSWFVDDVEVHTAQTQPREEQFNSTFRSVSELPIMHQDWLNGKEFKCRVNSAAFPAPIEKTISKTKGRPKAPQVYTIPPPKEQMAKDKVSLTCMITDFFPEDITVEWQWNGQPAENYKNTQPIMDTDGSYFVYSKLNVQKSNWEAGNTFTCSVLHEGLHNHHTEKSLSHSPGK
**Q.** How did the “fold drop of specific binding with anti-SMVT siRNA against siLUC” value [7] turn out when B1 was run?
**A.** > 2 fold
